# From patent US11312773B2, “Anti-PD-L1 antibody” (Fuso Pharmaceutical Industries, Ltd., priority 2016, dated 2022)
# B1: 4G12: rat anti-bovine PD-L1 monoclonal antibody; VL SEQ ID NO: 1, VH SEQ ID NO: 2 (antibody, listed as Rattus norvegicus, V domains shown)
# VH: MGWSQIILFLVAAATCVHSQVQLQQSGAELVKPGSSVKISCKASGYTFTSNFMHWVKQQPGNGLEWIGWIYPEYGNTKYNQKFDGKATLTADKSSSTAYMQLSSLTSEDSAVYFCASEEAVISLVYWGQGTLVTVSS
# VL: MESQTHVLISLLLSVSGTYGDIAITQSPSSVAVSVGETVTLSCKSSQSLLYSENQKDYLGWYQQKPGQTPKPLIYWATNRHTGVPDRFTGSGSGTDFTLIISSVQAEDLADYYCGQYLVYPFTFGPGTKLELK
# Tested on: water buffalo leukocytes
# Test: Flow cytometry reactivity with water buffalo leukocytes
# Type: binding, water buffalo (Bubalus bubalis)
# Procedure: Peripheral blood of water buffalo (Bubalus bubalis; Asian water buffalo) was hemolyzed with ACK buffer to isolate leukocytes. […] After washing, reaction with allophycocyanine-labelled anti-rat Ig goat antibody (Beckman Coulter) and fluorescein isothiocyanate-labeled anti-mouse IgG2 goat antibody (Beckman Coulter) was conducted at room temperature for 30 min. For analysis, FACS Calibur (BD Biosciences) was used. As a negative control antibody, rat IgG2a (κ) isotype control (BD Biosciences) was used. For every washing operation and dilution of antibodies, 10% inactivated goat serum supplemented PBS was used.
molecule,measurement,value
B1,Binding to blood macrophages (CD14+ CD11b+ cells) of water buffalo,strongly bound
same,Binding to lymphocytes (CD14− CD11b− cells) of water buffalo,weakly bound
